Data as given in IntAct's records for PubMed 34637754.

B1: Autism susceptibility gene 2 protein homolog (Mus musculus), A0A087WPF7 (parent)
chain: MDGPTRGHGLRKKRRSRSQRDRERRSRAGLGTGAAGGIGAGRTRAPSLASSSGSDKEDNGKPPSSAPSRPRPPRRKRRESTSAEEDIIDGFAMTSFVTFEALEKDVAVKPQERAEKRQTPLTKKKREALTNGLSFHSKKSRLSHSHHYSSDRENDRNLCQHLGKRKKMPKGLRQLKPGQNSCRDSDSESASGESKGFQRSSSRERLSDSSAPSSLGTGYFCDSDSDQEEKASDASSEKLFNTVLVNKDPELGVGALPEHNQDAGPIVPKISGLERSQEKSQDCCKEPVFEPVVLKDPHPQLPQLPSQAQAEPQLQIPSPGPDLVPRTEAPPQFPPPSTQPAQGPPEAQLQPAPLPQVQQRPPRPQSPSHLLQQTLPPVQSHPSSQSLSQPLSAYNSSSLSLNSLSSRSSTPAKTQPAPPHISHHPSASPFPLSLPNHSPLHSFTPTLQPPAHSHHPNMFAPPTALPPPPPLTSGSLQVPGHPAGSTYSEQDILRQELNTRFLASQSADRGASLGPPPYLRTEFHQHQHQHQHTHQHTHQHTFTPFPHAIPPTAIMPTPAPPMFDKYPTKVDPFYRHSLFHSYPPAVSGIPPMIPPTGPFGSLQGAFQPKTSNPIDVAARPGTVPHTLLQKDPRLTDPFRPMLRKPGKWCAMHVHIAWQIYHHQQKVKKQMQSDPHKLDFGLKPEFLSRPPGPSLFGAIHHPHDLARPSTLFSAAGAAHPTGTPFGPPPHHSNFLNPAAHLEPFNRPSTFTGLAAVGGNAFGGLGNPSVTPNSVFGHKDSPSVQNFSNPHEPWNRLHRTPPSFPTPPPWLKPGELERSASAAAHDRDRDVDKRDSSVSKDDKERESVEKRHPSHPSPAPPVPVSALGHNRSSTDPTTRGHLNTEAREKDKPKEKERDHSGSRKDLTTEEHKAKESHLPERDGHSHEGRAAGEEPKQLSRVPSPYVRTPGVDSTRPNSTSSREAEPRKGEPAYENPKKNAEVKVKEERKEDHDLPTEAPQAHRTSEAPPPSSSASASVHPGPLASMPMTVGVTGIHAMNSIGSLDRTRMVTPFMGLSPIPGGERFPYPSFHWDPMRDPLRDPYRDLDMHRRDPLGRDFLLRNDPLHRLSTPRLYEADRSFRDREPHDYSHHHHHHHHPLAVDPRREHERGGHLDERERLHVLREDYEHPRLHPVHPASLDGHLPHPSLLTPGLPSMHYPRISPTAGHQNGLLNKTPPTAALSAPPPLISTLGGRPGSPRRTTPLSAEIRERPPSHTLKDIEAR
B2: Autism susceptibility gene 2 protein (Homo sapiens), Q8WXX7 (parent)
chain: MDGPTRGHGLRKKRRSRSQRDRERRSRGGLGAGAAGGGGAGRTRALSLASSSGSDKEDNGKPPSSAPSRPRPPRRKRRESTSAEEDIIDGFAMTSFVTFEALEKDVALKPQERVEKRQTPLTKKKREALTNGLSFHSKKSRLSHPHHYSSDRENDRNLCQHLGKRKKMPKALRQLKPGQNSCRDSDSESASGESKGFHRSSSRERLSDSSAPSSLGTGYFCDSDSDQEEKASDASSEKLFNTVIVNKDPELGVGTLPEHDSQDAGPIVPKISGLERSQEKSQDCCKEPIFEPVVLKDPCPQVAQPIPQPQTEPQLRAPSPDPDLVQRTEAPPQPPPLSTQPPQGPPEAQLQPAPQPQVQRPPRPQSPTQLLHQNLPPVQAHPSAQSLSQPLSAYNSSSLSLNSLSSSRSSTPAKTQPAPPHISHHPSASPFPLSLPNHSPLHSFTPTLQPPAHSHHPNMFAPPTALPPPPPLTSGSLQVAGHPAGSTYSEQDILRQELNTRFLASQSADRGASLGPPPYLRTEFHQHQHQHQHTHQHTHQHTFTPFPHAIPPTAIMPTPAPPMFDKYPTKVDPFYRHSLFHSYPPAVSGIPPMIPPTGPFGSLQGAFQPKTSNPIDVAARPGTVPHTLLQKDPRLTDPFRPMLRKPGKWCAMHVHIAWQIYHHQQKVKKQMQSDPHKLDFGLKPEFLSRPPGPSLFGAIHHPHDLARPSTLFSAAGAAHPTGTPFGPPPHHSNFLNPAAHLEPFNRPSTFTGLAAVGGNAFGGLGNPSVTPNSMFGHKDGPSVQNFSNPHEPWNRLHRTPPSFPTPPPWLKPGELERSASAAAHDRDRDVDKRDSSVSKDDKERESVEKRHSSHPSPAPVLPVNALGHTRSSTEQIRAHLNTEAREKDKPKERERDHSESRKDLAADEHKAKEGHLPEKDGHGHEGRAAGEEAKQLARVPSPYVRTPVVESARPNSTSSREAEPRKGEPAYENPKKSSEVKVKEERKEDHDLPPEAPQTHRASEPPPPNSSSSVHPGPLASMPMTVGVTGIHPMNSISSLDRTRMMTPFMGISPLPGGERFPYPSFHWDPIRDPLRDPYRELDIHRRDPLGRDFLLRNDPLHRLSTPRLYEADRSFRDREPHDYSHHHHHHHHPLSVDPRREHERGGHLDERERLHMLREDYEHTRLHSVHPASLDGHLPHPSLITPGLPSMHYPRISPTAGNQNGLLNKTPPTAALSAPPPLISTLGGRPVSPRRTTPLSAEIRERPPSHTLKDIEAR

Columns and labels:
[1] = variants of: B1; settings: with ep300_mouse Ep300, B2RWS6
[2] = variants of: B1; settings: with ring2_mouse Rnf2, Q9CQJ4
[3] = variants of: B1; settings: with nf2l1_mouse Nfe2l1, Q61985
[4] = variants of: B2; settings: with ep300_human EP300, Q09472
[5] = variants of: B2; settings: with ring2_human RNF2, Q99496
[6] = variants of: B2; settings: with ep300_human EP300, Q09472; remark: listed apart in the source

ep300_human EP300, Q09472, sequence (Q09472 whole entry): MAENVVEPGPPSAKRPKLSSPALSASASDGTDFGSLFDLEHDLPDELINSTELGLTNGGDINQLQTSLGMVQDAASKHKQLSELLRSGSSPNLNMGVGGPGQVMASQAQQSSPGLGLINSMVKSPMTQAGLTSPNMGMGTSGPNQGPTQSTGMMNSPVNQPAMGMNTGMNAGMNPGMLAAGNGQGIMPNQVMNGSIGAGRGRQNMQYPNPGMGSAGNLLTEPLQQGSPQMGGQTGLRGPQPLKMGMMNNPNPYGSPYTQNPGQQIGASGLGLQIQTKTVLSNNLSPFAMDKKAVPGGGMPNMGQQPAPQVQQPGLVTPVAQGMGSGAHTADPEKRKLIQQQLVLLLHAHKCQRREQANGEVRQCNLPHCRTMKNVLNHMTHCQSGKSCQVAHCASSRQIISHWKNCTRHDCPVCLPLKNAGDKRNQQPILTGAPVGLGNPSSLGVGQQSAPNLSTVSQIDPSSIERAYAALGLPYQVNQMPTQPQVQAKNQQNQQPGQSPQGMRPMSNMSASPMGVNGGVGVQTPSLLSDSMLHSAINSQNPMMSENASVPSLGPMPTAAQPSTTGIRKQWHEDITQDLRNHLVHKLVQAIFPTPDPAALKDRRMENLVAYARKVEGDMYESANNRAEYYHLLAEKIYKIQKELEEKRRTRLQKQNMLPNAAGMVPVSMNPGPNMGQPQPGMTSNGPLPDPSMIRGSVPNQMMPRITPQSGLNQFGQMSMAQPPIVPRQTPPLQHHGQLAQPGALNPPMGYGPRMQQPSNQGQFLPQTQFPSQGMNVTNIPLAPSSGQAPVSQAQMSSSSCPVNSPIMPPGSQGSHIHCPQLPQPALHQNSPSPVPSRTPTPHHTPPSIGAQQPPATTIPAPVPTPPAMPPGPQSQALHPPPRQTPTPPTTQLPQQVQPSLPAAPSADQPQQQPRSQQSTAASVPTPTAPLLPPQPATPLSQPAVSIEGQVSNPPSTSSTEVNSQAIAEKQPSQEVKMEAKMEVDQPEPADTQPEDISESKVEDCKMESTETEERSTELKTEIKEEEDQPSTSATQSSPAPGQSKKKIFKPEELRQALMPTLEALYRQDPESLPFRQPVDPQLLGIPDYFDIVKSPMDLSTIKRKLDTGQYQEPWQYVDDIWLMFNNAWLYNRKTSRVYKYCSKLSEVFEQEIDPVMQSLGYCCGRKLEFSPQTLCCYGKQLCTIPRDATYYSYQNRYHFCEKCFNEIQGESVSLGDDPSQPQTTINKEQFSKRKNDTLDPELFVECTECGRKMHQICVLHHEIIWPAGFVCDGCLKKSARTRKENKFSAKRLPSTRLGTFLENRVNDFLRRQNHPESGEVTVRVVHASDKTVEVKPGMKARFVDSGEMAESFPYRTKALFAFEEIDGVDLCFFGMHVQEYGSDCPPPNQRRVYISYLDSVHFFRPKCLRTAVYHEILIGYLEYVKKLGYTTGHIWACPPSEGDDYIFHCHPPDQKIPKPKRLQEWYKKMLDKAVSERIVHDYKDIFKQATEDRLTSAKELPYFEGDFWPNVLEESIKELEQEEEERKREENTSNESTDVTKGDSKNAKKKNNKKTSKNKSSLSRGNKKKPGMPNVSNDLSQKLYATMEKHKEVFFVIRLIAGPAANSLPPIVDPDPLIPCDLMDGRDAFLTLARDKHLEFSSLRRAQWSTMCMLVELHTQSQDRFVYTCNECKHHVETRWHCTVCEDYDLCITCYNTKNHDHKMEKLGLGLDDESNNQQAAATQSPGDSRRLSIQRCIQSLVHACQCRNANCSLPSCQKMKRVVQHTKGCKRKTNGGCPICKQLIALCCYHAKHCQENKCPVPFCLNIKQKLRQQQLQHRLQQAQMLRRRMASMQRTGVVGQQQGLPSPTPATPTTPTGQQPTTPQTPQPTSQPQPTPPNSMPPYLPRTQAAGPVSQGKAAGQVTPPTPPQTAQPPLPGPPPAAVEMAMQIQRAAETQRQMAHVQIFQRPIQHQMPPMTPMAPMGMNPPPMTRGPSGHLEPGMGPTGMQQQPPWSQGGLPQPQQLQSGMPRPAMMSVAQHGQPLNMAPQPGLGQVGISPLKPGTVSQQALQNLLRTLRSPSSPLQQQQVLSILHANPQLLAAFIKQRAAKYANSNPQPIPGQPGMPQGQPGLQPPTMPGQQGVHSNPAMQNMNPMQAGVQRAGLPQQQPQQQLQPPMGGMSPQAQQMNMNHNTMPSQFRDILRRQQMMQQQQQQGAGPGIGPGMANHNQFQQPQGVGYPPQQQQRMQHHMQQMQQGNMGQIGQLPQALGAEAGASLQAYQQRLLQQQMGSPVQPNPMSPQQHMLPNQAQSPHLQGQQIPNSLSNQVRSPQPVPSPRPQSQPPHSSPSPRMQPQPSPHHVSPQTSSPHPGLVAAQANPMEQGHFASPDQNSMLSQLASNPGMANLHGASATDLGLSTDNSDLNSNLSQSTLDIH
ring2_human RNF2, Q99496, sequence (Q99496 whole entry): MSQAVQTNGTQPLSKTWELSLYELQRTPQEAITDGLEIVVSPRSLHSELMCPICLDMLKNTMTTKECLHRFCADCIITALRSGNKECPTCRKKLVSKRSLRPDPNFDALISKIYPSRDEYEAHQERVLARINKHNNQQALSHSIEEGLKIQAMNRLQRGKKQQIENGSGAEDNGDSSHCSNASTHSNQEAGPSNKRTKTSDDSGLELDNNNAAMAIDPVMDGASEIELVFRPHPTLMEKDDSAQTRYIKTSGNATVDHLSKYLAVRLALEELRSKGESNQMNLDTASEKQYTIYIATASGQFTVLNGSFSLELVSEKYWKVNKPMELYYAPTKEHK
nf2l1_mouse Nfe2l1, Q61985, sequence (Q61985 whole entry): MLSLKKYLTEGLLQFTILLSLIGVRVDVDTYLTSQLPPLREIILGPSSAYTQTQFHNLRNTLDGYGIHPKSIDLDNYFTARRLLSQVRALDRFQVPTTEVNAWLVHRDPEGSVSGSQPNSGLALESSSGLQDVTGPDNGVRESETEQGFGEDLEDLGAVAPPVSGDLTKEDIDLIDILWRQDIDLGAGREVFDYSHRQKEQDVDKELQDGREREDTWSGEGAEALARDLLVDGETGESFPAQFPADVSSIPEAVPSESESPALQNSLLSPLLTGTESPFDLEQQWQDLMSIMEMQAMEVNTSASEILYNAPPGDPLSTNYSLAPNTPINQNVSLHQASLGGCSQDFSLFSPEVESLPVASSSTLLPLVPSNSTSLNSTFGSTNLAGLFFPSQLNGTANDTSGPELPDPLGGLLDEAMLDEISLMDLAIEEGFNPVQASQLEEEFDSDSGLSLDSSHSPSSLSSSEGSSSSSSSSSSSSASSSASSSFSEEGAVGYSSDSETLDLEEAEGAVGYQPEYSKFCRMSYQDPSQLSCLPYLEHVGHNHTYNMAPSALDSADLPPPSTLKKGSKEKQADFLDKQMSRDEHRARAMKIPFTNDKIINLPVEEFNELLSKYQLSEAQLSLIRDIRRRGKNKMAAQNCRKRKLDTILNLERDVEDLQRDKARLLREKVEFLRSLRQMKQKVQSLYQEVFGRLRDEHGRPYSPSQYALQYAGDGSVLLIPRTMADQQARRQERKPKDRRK
ring2_mouse Rnf2, Q9CQJ4, sequence (Q9CQJ4 whole entry): as the sequence (Q99496 whole entry) above, with M214V counted along it

Variant | effect of a mutation on the interaction [1] | effect of a mutation on the interaction [2] | effect of a mutation on the interaction [3] | effect of a mutation on the interaction [4] | effect of a mutation on the interaction [5] | effect of a mutation on the interaction [6]
T533P | disrupting interaction | with no effect | with no effect |  |  | 
P517L |  |  |  | decreasing interaction | increasing interaction | with no effect
T534P |  |  |  | disrupting interaction | with no effect | 
